Test in all cases: cell-based or functional assay
The target in assay [1] is IL-11:IL-11Rα fusion protein.
The target in a further assay is human IL-11 (human) (UniProt P20809).
In assay [2] the target is T1, murine IL-11 (mouse) (UniProt P47873).
T1 sequence (looked up): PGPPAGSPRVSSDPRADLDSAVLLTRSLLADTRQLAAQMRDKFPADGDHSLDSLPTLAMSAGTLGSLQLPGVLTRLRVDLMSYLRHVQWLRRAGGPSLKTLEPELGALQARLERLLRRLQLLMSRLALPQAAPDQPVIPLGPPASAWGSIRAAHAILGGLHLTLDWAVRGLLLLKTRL

In assay [3] the target is T1, murine IL-11 (mouse). This is another data set of the same source.

Where two headings read alike, the source gives them in different places.

IL-11:IL-11Rα fusion protein, sequence (chain, as listed by the source limits assumed): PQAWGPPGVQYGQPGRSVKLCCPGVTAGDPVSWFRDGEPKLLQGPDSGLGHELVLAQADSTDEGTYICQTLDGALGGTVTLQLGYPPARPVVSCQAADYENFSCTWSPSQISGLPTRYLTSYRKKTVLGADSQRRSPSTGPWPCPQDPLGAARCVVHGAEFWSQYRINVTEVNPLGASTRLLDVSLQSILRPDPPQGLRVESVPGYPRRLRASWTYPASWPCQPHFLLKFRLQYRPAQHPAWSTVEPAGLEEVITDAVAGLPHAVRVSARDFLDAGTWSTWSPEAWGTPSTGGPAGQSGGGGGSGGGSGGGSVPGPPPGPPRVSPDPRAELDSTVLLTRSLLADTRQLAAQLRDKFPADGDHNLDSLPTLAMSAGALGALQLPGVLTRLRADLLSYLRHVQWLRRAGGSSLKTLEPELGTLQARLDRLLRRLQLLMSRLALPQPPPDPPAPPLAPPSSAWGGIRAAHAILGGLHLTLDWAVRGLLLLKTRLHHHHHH

On to “Monoclonal Mouse IgG2A anti-human IL-11 antibody, Clone #22626, Catalog No. MAB218 (R&D Systems)”, for which, in assay [1], the percentage of αSMA-positive (activated) fibroblasts, human atrial fibroblasts + hyper IL-11 (0.2 ng/ml) stood at 33.8% and the percentage of αSMA-positive (activated) fibroblasts, human atrial fibroblasts + hyper IL-11 (0.2 ng/ml), normalised to unstimulated (=1) (fold of unstimulated) is 1.28. Moreover, in the assay with human IL-11 (human), the percentage of αSMA-positive (activated) fibroblasts, human atrial fibroblasts + TGFβ1 was 28.3%; the percentage of αSMA-positive (activated) fibroblasts, human atrial fibroblasts + TGFβ1, normalised to unstimulated (=1) (fold of unstimulated) was found to be 0.99; the percentage of αSMA-positive (activated) fibroblasts, human atrial fibroblasts + TGFβ1, relative to unstimulated was determined as 0.89 times. In the assay with murine IL-11 (mouse) [2], the percentage of αSMA-positive (activated) fibroblasts, mouse atrial fibroblasts + TGFβ1 worked out at 39.4% and the percentage of αSMA-positive (activated) fibroblasts, mouse atrial fibroblasts + TGFβ1, normalised to unstimulated (=1) (fold of unstimulated) came to 1.24. In the assay with murine IL-11 (mouse) [3], the percentage of αSMA-positive (activated) fibroblasts, mouse atrial fibroblasts + TGFβ1 was determined as 43% and the percentage of αSMA-positive (activated) fibroblasts, mouse atrial fibroblasts + TGFβ1, normalised to unstimulated (=1) (fold of unstimulated) is 1.44.

These data come from patent US20180186871A1.
